Reference: the supplement of paper PMC9112550, “Optimization of the antimicrobial peptide Bac7 by deep mutational scanning” (BMC Biology, 2022)
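Note: peptides expressed intracellularly from a pBAD plasmid library in pooled LB shake-flask culture, induced with 0.3% L-arabinose, DNA abundance read by NGS, three biological replicates, DESeq2 with apeglm shrinkage.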

What follows are sequences tested on Escherichia coli TOP10 (assay: shrunken log2 fold change of peptide-encoding DNA abundance (4.5 h post-induction vs induction); higher = less antimicrobial activity (less host growth inhibition)). Details: time post-induction: 4.5 h; library: site-saturation at positions 5, 18, 19, 20.
With RRIRKRPPRLPRPRPRPFNKPRP the “shrunken log2 fold change” value was -0.0789.
With RRIRDRPPRLPRPRPRPFMQPRP the “shrunken log2 fold change” value was 0.0183.
With RRIRPRPPRLPRPRPRPAINPRP the “shrunken log2 fold change” value was -0.142.
With RRIRLRPPRLPRPRPRPENHPRP the “shrunken log2 fold change” value was -0.126.
With RRIRTRPPRLPRPRPRPPVVPRP the “shrunken log2 fold change” value was -0.0715.
RRIRIRPPRLPRPRPRPSTFPRP was tested, and the “shrunken log2 fold change” value was -0.329.
In the case of RRIRIRPPRLPRPRPRPNSRPRP, the “shrunken log2 fold change” value was -0.0636.
For RRIRLRPPRLPRPRPRPLTRPRP, the “shrunken log2 fold change” value was 1.93.
In the case of RRIRIRPPRLPRPRPRPDICPRP, the “shrunken log2 fold change” value was -0.0265.
For RRIRDRPPRLPRPRPRPYMKPRP, the “shrunken log2 fold change” value was -0.152.
For RRIRLRPPRLPRPRPRPHCFPRP, the “shrunken log2 fold change” value was -0.0782.
In the case of RRIRYRPPRLPRPRPRPNTVPRP, the “shrunken log2 fold change” value was -0.301.
With RRIRRRPPRLPRPRPRPYLKPRP the “shrunken log2 fold change” value was -0.936.
RRIRRRPPRLPRPRPRPYKHPRP was tested, and the “shrunken log2 fold change” value was -0.89.
In the case of RRIRFRPPRLPRPRPRPIEEPRP, the “shrunken log2 fold change” value was 0.0565.
In the case of RRIRIRPPRLPRPRPRPINVPRP, the “shrunken log2 fold change” value was -0.619.
RRIRWRPPRLPRPRPRPLRWPRP was tested, and the “shrunken log2 fold change” value was 1.08.
In the case of RRIRPRPPRLPRPRPRPFLIPRP, the “shrunken log2 fold change” value was -0.459.
RRIRARPPRLPRPRPRPAKLPRP was tested, and the “shrunken log2 fold change” value was 0.196.
RRIRWRPPRLPRPRPRPIDLPRP was tested, and the “shrunken log2 fold change” value was 0.0151.
RRIRARPPRLPRPRPRPTEEPRP was tested, and the “shrunken log2 fold change” value was -0.082.
With RRIRYRPPRLPRPRPRPSFMPRP the “shrunken log2 fold change” value was -0.759.
In the case of RRIRRRPPRLPRPRPRPVKIPRP, the “shrunken log2 fold change” value was 0.266.
RRIRARPPRLPRPRPRPTESPRP was tested, and the “shrunken log2 fold change” value was 0.659.
For RRIRGRPPRLPRPRPRPAIYPRP, the “shrunken log2 fold change” value was 0.302.
RRIRIRPPRLPRPRPRPSCDPRP was tested, and the “shrunken log2 fold change” value was 0.346.
RRIRTRPPRLPRPRPRPPHRPRP was tested, and the “shrunken log2 fold change” value was -0.0645.
With RRIRMRPPRLPRPRPRPIIDPRP the “shrunken log2 fold change” value was -0.399.
In the case of RRIRMRPPRLPRPRPRPKWHPRP, the “shrunken log2 fold change” value was 0.349.
With RRIRLRPPRLPRPRPRPMMQPRP the “shrunken log2 fold change” value was -0.223.
For RRIRHRPPRLPRPRPRPCLMPRP, the “shrunken log2 fold change” value was -0.0298.
RRIRQRPPRLPRPRPRPHLKPRP was tested, and the “shrunken log2 fold change” value was -0.0175.
For RRIRNRPPRLPRPRPRPSRNPRP, the “shrunken log2 fold change” value was 0.0074.
For RRIRIRPPRLPRPRPRPILWPRP, the “shrunken log2 fold change” value was -0.238.
In the case of RRIRCRPPRLPRPRPRPTRTPRP, the “shrunken log2 fold change” value was 0.406.
RRIRLRPPRLPRPRPRPTPWPRP was tested, and the “shrunken log2 fold change” value was 0.381.
RRIRVRPPRLPRPRPRPSCQPRP was tested, and the “shrunken log2 fold change” value was -0.643.
With RRIRWRPPRLPRPRPRPDSSPRP the “shrunken log2 fold change” value was -0.238.
RRIRERPPRLPRPRPRPRWWPRP was tested, and the “shrunken log2 fold change” value was 0.0167.
RRIRQRPPRLPRPRPRPLQKPRP was tested, and the “shrunken log2 fold change” value was -0.0062.
For RRIRWRPPRLPRPRPRPPHKPRP, the “shrunken log2 fold change” value was 0.339.
RRIRERPPRLPRPRPRPWKQPRP was tested, and the “shrunken log2 fold change” value was -0.0582.
In the case of RRIRYRPPRLPRPRPRPRDPPRP, the “shrunken log2 fold change” value was 0.271.
RRIRPRPPRLPRPRPRPRINPRP was tested, and the “shrunken log2 fold change” value was -0.16.
With RRIRIRPPRLPRPRPRPLELPRP the “shrunken log2 fold change” value was -0.461.
With RRIRMRPPRLPRPRPRPPHAPRP the “shrunken log2 fold change” value was 1.65.
For RRIRNRPPRLPRPRPRPLDTPRP, the “shrunken log2 fold change” value was -0.0954.
With RRIRIRPPRLPRPRPRPMQDPRP the “shrunken log2 fold change” value was -0.223.
In the case of RRIRWRPPRLPRPRPRPGPFPRP, the “shrunken log2 fold change” value was 0.125.
RRIRMRPPRLPRPRPRPVWVPRP was tested, and the “shrunken log2 fold change” value was 0.0789.
RRIRPRPPRLPRPRPRPGEYPRP was tested, and the “shrunken log2 fold change” value was -0.207.
With RRIRIRPPRLPRPRPRPSIWPRP the “shrunken log2 fold change” value was -0.0823.
In the case of RRIRVRPPRLPRPRPRPGHQPRP, the “shrunken log2 fold change” value was -0.0671.
For RRIRARPPRLPRPRPRPVYVPRP, the “shrunken log2 fold change” value was 0.111.
In the case of RRIRIRPPRLPRPRPRPECSPRP, the “shrunken log2 fold change” value was -0.428.
For RRIRERPPRLPRPRPRPRGMPRP, the “shrunken log2 fold change” value was 0.0957.
In the case of RRIRHRPPRLPRPRPRPPRLPRP, the “shrunken log2 fold change” value was 0.0241.
In the case of RRIRERPPRLPRPRPRPWSTPRP, the “shrunken log2 fold change” value was -0.237.
With RRIRCRPPRLPRPRPRPIINPRP the “shrunken log2 fold change” value was -0.325.
With RRIRARPPRLPRPRPRPCSHPRP the “shrunken log2 fold change” value was 0.0574.
RRIRSRPPRLPRPRPRPTGCPRP was tested, and the “shrunken log2 fold change” value was 0.159.
RRIRQRPPRLPRPRPRPIFRPRP was tested, and the “shrunken log2 fold change” value was 0.0716.
RRIRYRPPRLPRPRPRPSTEPRP was tested, and the “shrunken log2 fold change” value was -0.435.
